The text below walks through data of PMC2783927.

Assay [1] has as its target IL-17RA extracellular domain, C-terminally biotinylated (human) (UniProt Q96F46). The experiment in a line: SPR.
The target in assay [2] is IL-17RC extracellular domain, C-terminally biotinylated (UniProt Q8NAC3). Description: SPR.
The target in assay [3] is IL-17F homodimer (for binding experiments) (human) (UniProt Q96PD4). Description: SEC.
Assay [4] concerns the target IL-17RB-IL-25 complex, pre-assembled on the SPR chip (UniProt Q9NRM6). The experiment in a line: SPR.
Assay [5] concerns the target IL-17RC-IL-17A complex, pre-assembled on the SPR chip (UniProt Q8NAC3). The experiment in a line: SPR.
For assay [6], the target named is IL-17RC-IL-17F complex, pre-assembled on the SPR chip (UniProt Q8NAC3). The experiment in a line: SPR.
The target in assay [7] is T1, IL-17F homodimer (crystallised form: tag cleaved, lysine-methylated) (human), Q96PD4.
T1 chain: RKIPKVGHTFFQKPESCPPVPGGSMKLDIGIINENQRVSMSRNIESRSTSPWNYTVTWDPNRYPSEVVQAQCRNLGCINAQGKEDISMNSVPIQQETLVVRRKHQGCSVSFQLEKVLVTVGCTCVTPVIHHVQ
Description: SDS-PAGE. As to conditions: remark: other sources report otherwise.

In assay [8] the target is T1, IL-17F homodimer (crystallised form: …). The experiment in a line: crystal structure. As to conditions: remark: other sources report otherwise.

UniProt Q9NRM6, sequence (Q9NRM6 18-292, chain 1 of 2): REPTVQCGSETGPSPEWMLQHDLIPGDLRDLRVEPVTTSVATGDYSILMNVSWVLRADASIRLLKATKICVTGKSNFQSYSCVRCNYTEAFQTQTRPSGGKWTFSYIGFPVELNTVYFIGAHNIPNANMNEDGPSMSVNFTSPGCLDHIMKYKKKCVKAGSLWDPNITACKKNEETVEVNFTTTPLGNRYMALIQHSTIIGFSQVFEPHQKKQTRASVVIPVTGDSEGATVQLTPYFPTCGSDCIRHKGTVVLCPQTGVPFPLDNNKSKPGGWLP
UniProt Q9NRM6, sequence (Q9H293 33-177, chain 2 of 2, further chain): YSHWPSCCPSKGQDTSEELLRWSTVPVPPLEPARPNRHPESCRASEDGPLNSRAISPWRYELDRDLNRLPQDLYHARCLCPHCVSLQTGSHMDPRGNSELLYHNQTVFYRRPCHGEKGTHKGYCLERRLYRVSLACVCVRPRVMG

Regarding “IL-17A homodimer (from UniProt Q16552 24-155) (ligand)”, the Kd in assay [1] was 0.0028 µM; in assay [2], 0.0012 µM.
The like results for “IL-17F homodimer (for binding experiments) (from UniProt Q96PD4 31-163) (ligand)” were, in that order, 0.292 µM and 0.0044 µM.
As to “IL-17RA extracellular domain, soluble (without BirA ligase tag) (receptor)”, in assay [3], the stoichiometry N (receptor per IL-17 dimer) was found to be 1. Moreover, the stoichiometry N (receptors per IL-17 dimer) in assay [3] worked out at 2. For the same molecule, the figures for the Kd in assay [4], in assay [5] and in assay [6] were 14.1 µM, 0.162 µM and 23.8 µM, respectively.

B1: IL-17F homodimer (crystallised form: tag cleaved, lysine-methylated), Q96PD4 31-163 (ligand)
chain: T1 chain
modifications: here or on the partner: reductive lysine methylation of the complex; reductive lysine methylation of the complex
B1: the stoichiometry N in assay [7] and in assay [8] was 2 in each case.

B2: IL-17RC extracellular domain, soluble (without BirA ligase tag) (receptor)
chain: LERLVGPQDATHCSPVSLEPWGDEERLRVQFLAQQSLSLAPVTAATARTALSGLSGADGRREERGRGKSWVCLSLGGSGNTEPQKKGLSCRLWDSDILCLPGDIVPAPGPVLAPTHLQTELVLRCQKETDCDLCLRVAVHLAVHGHWEEPEDEEKFGGAADSGVEEPRNASLQAQVVLSFQAYPTARCVLLEVQVPAALVQFGQSVGSVVYDCFEAALGSEVRIWSYTQPRYEKELNHTQQLPDCRGLEVWNSIPSCWALPWLNVSADGDNVHLVLNVSEEQHFGLSLYWNQVQGPPKPRWHKNLTGPQIITLNHTDLVPCLCIQVWPLEPDSVRTNICPFREDPRAHQNLWQAARLQLLTLQSWLLDAPCSLPAEAALCWRAPGGDPCQPLVPPLSWENVTVDKVLEFPLLKGHPNLCVQVNSSEKLQLQECLWADSLGPLKDDVLLLETRGPQDNRSLCALEPSGCTSLPSKASTRAARLGEYLLQDLQSGQCLQLWDDDLGALWACPMDKYIHKR
Regarding B2, the Kd in assay [5] worked out at 8 µM.
